Square brackets hold non-standard residues; d marks the D form. Ends that are not written are not given here. Tyr(3-NO2) = N[C@@H](Cc1ccc(O)c([N+](=O)[O-])c1)C(=O)O; 2Abz = Nc1ccccc1C(=O)O
Assays:
Format in all cases: biochemical
[1] = molecular target: uPA (Homo sapiens, UniProt P00749); assay: FRET peptide cleavage efficiency with uPA
[2] = molecular target: T1, MMP-9 (Homo sapiens, UniProt P14780); assay: FRET peptide cleavage efficiency with MMP-9 (standard pH 7.5; also pH 6.5)
T1 construct: purchased SIGMA PF024

[3] = molecular target: T2, matriptase (Homo sapiens, UniProt Q9Y5Y6); assay: FRET peptide cleavage efficiency with matriptase
T2 construct: purchased R&D Systems 3946-SEB
T2 sequence (Q9Y5Y6 615-855 limits assumed): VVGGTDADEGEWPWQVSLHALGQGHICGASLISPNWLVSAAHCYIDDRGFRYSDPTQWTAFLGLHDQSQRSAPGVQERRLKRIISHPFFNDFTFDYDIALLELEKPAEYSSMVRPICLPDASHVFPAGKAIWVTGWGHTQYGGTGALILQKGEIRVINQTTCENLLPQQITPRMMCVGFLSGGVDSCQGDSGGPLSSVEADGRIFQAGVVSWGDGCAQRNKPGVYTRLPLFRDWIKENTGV

[4] = molecular target: T3, MMP-2 (Homo sapiens, UniProt P08253); assay: FRET peptide cleavage efficiency with MMP-2
T3 construct: purchased SIGMA PF023
T3 sequence (P08253 110-660): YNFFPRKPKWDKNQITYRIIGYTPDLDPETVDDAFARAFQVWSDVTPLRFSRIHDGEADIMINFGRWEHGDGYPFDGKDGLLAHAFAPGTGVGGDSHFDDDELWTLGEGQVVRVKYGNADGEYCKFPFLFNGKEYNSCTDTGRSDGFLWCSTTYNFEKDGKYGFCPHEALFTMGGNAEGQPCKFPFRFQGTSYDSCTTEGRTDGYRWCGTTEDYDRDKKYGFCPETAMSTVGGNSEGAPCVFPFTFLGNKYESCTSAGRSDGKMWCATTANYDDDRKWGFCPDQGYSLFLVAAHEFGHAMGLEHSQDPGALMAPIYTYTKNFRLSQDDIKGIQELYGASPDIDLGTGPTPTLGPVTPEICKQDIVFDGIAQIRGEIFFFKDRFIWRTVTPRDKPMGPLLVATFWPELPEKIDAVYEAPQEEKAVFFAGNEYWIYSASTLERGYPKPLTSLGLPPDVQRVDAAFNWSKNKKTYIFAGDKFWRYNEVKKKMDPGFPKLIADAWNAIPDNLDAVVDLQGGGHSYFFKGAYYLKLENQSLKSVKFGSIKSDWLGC

[5] = molecular target: T4, MMP-7 (Homo sapiens, UniProt P09237); assay: FRET peptide cleavage efficiency with MMP-7 (standard pH 7.5; also pH 6.5)
T4 construct: purchased SIGMA CC1059
T4 sequence (P09237 95-267): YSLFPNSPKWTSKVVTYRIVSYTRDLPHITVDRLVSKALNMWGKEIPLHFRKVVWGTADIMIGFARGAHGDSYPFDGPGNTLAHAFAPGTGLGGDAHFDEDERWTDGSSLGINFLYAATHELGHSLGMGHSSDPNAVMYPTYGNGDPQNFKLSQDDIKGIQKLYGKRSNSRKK

[6] = 200 uM linker, 1 ug/ml protease, 37° C., buffer A pH 8.5
[7] = t = 60 min, 200 uM linker, 1 ug/ml protease, 37° C., buffer A pH 8.5
[8] = t = 120 min, 200 uM linker, 1 ug/ml protease, 37° C., buffer A pH 8.5
[9] = t = 15 min, 200 uM linker, 1 ug/ml protease, 37° C., buffer B pH 9.0
[10] = t = 60 min, 200 uM linker, 1 ug/ml protease, 37° C., buffer B pH 9.0
[11] = 200 uM linker, 1 ug/ml protease, 37° C., buffer B pH 9.0
[12] = t = 15 min, 200 uM linker, 1 ug/ml protease, 37° C., buffer C pH 7.5
[13] = t = 60 min, 200 uM linker, 1 ug/ml protease, 37° C., buffer C pH 7.5
[14] = t = 120 min, 200 uM linker, 1 ug/ml protease, 37° C., buffer C pH 7.5
[15] = t = 60 min, standard conditions (Table 8)
[16] = t = 120 min, standard conditions (Table 8)
[17] = t = 15 min, standard conditions (Table 8)

T1 sequence (P14780 94-707): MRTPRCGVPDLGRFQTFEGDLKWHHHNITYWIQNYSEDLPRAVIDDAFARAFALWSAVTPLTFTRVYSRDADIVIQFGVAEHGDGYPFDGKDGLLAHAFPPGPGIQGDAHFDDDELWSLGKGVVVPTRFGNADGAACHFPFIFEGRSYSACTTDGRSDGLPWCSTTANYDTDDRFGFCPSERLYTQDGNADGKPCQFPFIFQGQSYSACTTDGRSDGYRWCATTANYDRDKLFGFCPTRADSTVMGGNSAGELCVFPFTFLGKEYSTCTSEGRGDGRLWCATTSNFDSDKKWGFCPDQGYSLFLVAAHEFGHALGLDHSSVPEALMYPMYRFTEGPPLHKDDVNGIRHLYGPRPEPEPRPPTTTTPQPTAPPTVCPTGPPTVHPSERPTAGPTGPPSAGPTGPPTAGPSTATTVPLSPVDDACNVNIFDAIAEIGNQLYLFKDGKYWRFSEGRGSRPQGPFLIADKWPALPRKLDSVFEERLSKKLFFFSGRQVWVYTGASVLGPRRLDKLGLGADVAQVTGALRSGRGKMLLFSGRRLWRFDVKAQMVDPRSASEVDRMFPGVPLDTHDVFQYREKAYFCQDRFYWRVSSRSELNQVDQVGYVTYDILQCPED

% cleavage uPA t = 15 min [1, 6] [%] | % cleavage uPA t = 60 min [1, 7] [%] | % cleavage uPA t = 120 min [1, 8] [%] | % cleavage MMP-9 t = 15 min ([2]; t = 15 min (Table 9)) [%] | % cleavage MMP-9 t = 60 min ([2]; t = 60 min (Table 9)) [%] | % cleavage MMP-9 t = 120 min ([2]; t = 120 min (Table 9)) [%] | % cleavage Matriptase t = 15 min [3, 9] [%] | % cleavage Matriptase t = 60 min [3, 10] [%] | % cleavage Matriptase t = 120 min [3, 11] [%] | % cleavage MMP-2 t = 15 min ([4]; t = 15 min (Table 9)) [%] | % cleavage MMP-2 t = 15 min [4, 12] [%] | % cleavage MMP-2 t = 60 min ([4]; t = 60 min (Table 9)) [%] | % cleavage MMP-2 t = 60 min [4, 13] [%] | % cleavage MMP-2 t = 120 min ([4]; t = 120 min (Table 9)) [%] | % cleavage MMP-2 t = 120 min [4, 14] [%] | % cleavage MMP-7 t = 15 min ([5]; t = 15 min (Table 9)) [%] | % cleavage MMP-7 t = 60 min ([5]; t = 60 min (Table 9)) [%] | % cleavage MMP-7 t = 120 min ([5]; t = 120 min (Table 9)) [%] | Sequence | other results
0 | 0 | 0 | 20 | 100 | 100 | 22 | 78 | 100 | 71 | 71 | 100 | 100 | 100 | 100 | 0 | 0 | 0 | RGRRPLGYFGKL ([2Abz]RGRRPLGYFGKL[Tyr(3-NO2)]-NH2) [LNK057] | –
67 | 100 | 100 | 39 | 100 | 100 | 76 | 100 | 100 | 77 | 77 | 100 | 100 | 100 | 100 | 0 | 0 | 0 | RGRRSGRAANLVRPLGYFGKL ([2Abz]RGRRSGRAANLVRPLGYFGKL[Tyr(3-NO2)]-NH2) [LNK059] | –
– | – | – | 81 | 100 | 100 | – | – | – | 87 | – | 100 | – | 100 | – | 30 | 86 | 98 | RGRRVANLVG ([2Abz]RGRRVANLVG[Tyr(3-NO2)]-NH2) [LNK033] | % vcleavage uPA t = 15 min ([1]; standard conditions (Table 8)): 1%; % cleavage uPA t = 60 min [1, 15]: 2%; % cleavage uPA t = 120 min [1, 16]: 3%; % cleavage MMP-9 t = 15 min [2, 17]: 81%; % cleavage MMP-9 t = 60 min [2, 15]: 100%; % cleavage MMP-9 t = 120 min [2, 16]: 100%; % cleavage Matriptase t = 15 min [3, 17]: 100%; % cleavage Matriptase t = 60 min [3, 15]: 100%; % cleavage Matriptase t = 120 min ([3]; standard conditions (Table 8)): 100%; % cleavage MMP-2 t = 60 min [4, 15]: 100%; % cleavage MMP-2 t = 120 min [4, 16]: 100%; % cleavage MMP-7 t = 15 min [5, 17]: 30%; % cleavage MMP-7 t = 60 min [5, 15]: 86%; % cleavage MMP-7 t = 120 min [5, 16]: 98%
1 | 3 | 6 | 52 | 100 | 100 | 78 | 100 | 100 | 54 | 54 | 100 | 100 | 100 | 100 | 1 | 3 | 6 | RGRRVANPLGLAGSG ([2Abz]RGRRVANPLGLAGSG[Tyr(3-NO2)]-NH2) [LNK050] | –
1 | 5 | 10 | 31 | 97 | 100 | 88 | 100 | 100 | 68 | 68 | 100 | 100 | 100 | 100 | 0 | 0 | 0 | RGRRVANPLGYFGKL ([2Abz]RGRRVANPLGYFGKL[Tyr(3-NO2)]-NH2) [LNK058] | –
2 | 4 | 8 | 35 | 81 | 100 | 67 | 100 | 100 | 85 | 85 | 100 | 100 | 100 | 100 | 0 | 0 | 0 | RGRRVANYFGKL ([2Abz]RGRRVANYFGKL[Tyr(3-NO2)]-NH2) [LNK055] | –
– | – | – | 53 | 100 | 100 | – | – | – | 81 | – | 100 | – | 100 | – | 20 | 72 | 95 | RQRKVANLVG ([2Abz]RQRKVANLVG[Tyr(3-NO2)]-NH2) [LNK032] | % vcleavage uPA t = 15 min ([1]; standard conditions (Table 8)): 0%; % cleavage uPA t = 60 min [1, 15]: 0%; % cleavage uPA t = 120 min [1, 16]: 0%; % cleavage MMP-9 t = 15 min [2, 17]: 53%; % cleavage MMP-9 t = 60 min [2, 15]: 100%; % cleavage MMP-9 t = 120 min [2, 16]: 100%; % cleavage Matriptase t = 15 min [3, 17]: 81%; % cleavage Matriptase t = 60 min [3, 15]: 100%; % cleavage Matriptase t = 120 min ([3]; standard conditions (Table 8)): 100%; % cleavage MMP-2 t = 60 min [4, 15]: 100%; % cleavage MMP-2 t = 120 min [4, 16]: 100%; % cleavage MMP-7 t = 15 min [5, 17]: 20%; % cleavage MMP-7 t = 60 min [5, 15]: 72%; % cleavage MMP-7 t = 120 min [5, 16]: 95%
0 | 1 | 2 | 76 | 99 | 100 | 98 | 94 | 91 | 67 | 64 | 100 | 99 | 100 | 99 | 15 | 49 | 78 | RQRRSPLGLAG ([2Abz]RQRRSPLGLAG[Tyr(3-NO2)]-NH2) [LNK010] | % cleavage uPA t = 60 min ([1]; pH 6.5, t = 60 min (Table 7)): 0%; % cleavage uPA t = 120 min ([1]; pH 6.5, t = 120 min (Table 7)): 0%; % cleavage uPA t = 60 min ([1]; pH 7.5, t = 60 min (Table 7)): 0%; % cleavage uPA t = 120 min ([1]; pH 7.5, t = 120 min (Table 7)): 0%; % cleavage Matriptase t = 15 min ([3]; pH 6.5, t = 15 min (Table 7)): 90%; % cleavage Matriptase t = 60 min ([3]; pH 6.5, t = 60 min (Table 7)): 100%; % cleavage Matriptase t = 15 min ([3]; pH 7.5, t = 15 min (Table 7)): 100%; % cleavage Matriptase t = 60 min ([3]; pH 7.5, t = 60 min (Table 7)): 100%; % cleavage MMP-2 t = 15 min ([4]; pH 6.5, t = 15 min (Table 7)): 63%; % cleavage MMP-2 t = 60 min ([4]; pH 6.5, t = 60 min (Table 7)): 100%; % cleavage MMP-2 t = 15 min ([4]; pH 7.5, t = 15 min (Table 7)): 66%; % cleavage MMP-2 t = 60 min ([4]; pH 7.5, t = 60 min (Table 7)): 100%
